Entries after “also recorded” stand apart in the source; their conditions may differ.
What was measured:
Assay type in all cases: cell-based, human
[1] = test system: RhoG; experiment: RhoG activity pull-down with ELMO2/GST beads in MT1-MMP knockdown A431 cells; settings: MT1-MMP knockdown A431 cells after EGF stimulation
From the text: By using A431 cells whose MT1-MMP expression was knocked down by siRNA, an influence of Ephrin-A1-dependent EphA2 on an RhoG signaling downstream of the EGF receptor was studied.
A fusion protein of ELMO2 and GST, each serving as an effector of RhoG, was solid phased on glutathione beads and the RhoG activity in a cell suspension solubilized with RIPA was detected by pull-down using ELMO2/GST beads as a bait. Co-precipitated RhoG was detected using an anti-RhoG polyclonal antibody (Santa Cruz) and the RhoG activity was quantified by densitometry with Image J. An expression vector of ELMO2 was kindly given by Chihiro Sasakawa, professor of Division of Bacterial Infection, Medical Institute of Science, The University of Tokyo.

[2] = test system: A431 cells; experiment: Cell growth assay, three-dimensional collagen gel culture and spheroid formation; settings: three-dimensional culture in collagen gel and anchorage-independent spheroid formation
Experimental: Collagen I gel (3 mg/ml, Nitta Gelatin) extracted in acetic acid, a neutralization buffer (50 mM NaOH, 260 mM NaHCO3, 200 mM HEPES), and each of the two types of cells were mixed and the resulting mixture was seeded to satisfy 2.5×10^4/250 μl/48 well plate. After completion of the polymerization of the collagen gel, they were cultured for 7 days in 400 μl/well of a DMEM/1% FCS culture solution. After culturing, the collagen gel was dissolved with 0.1% collagenase. The cells were treated with trypsin to dissociate them into single cells and the number of the cells was counted using a Coulter counter.
The two types of the cells were each detached with trypsin from one another and the number of the cells was counted by a hemocytometer. They were seeded in a low adhesion plate (PrimeSurface (registered trademark), Sumitomo Bakelite) of each cell protein (100 cells/100 μl/96 well plate) and cultured for 7 days in a DMEM/1% FCS culture solution. The number of spheroid formation cells was obtained from their volume (½×long diameter×(short diameter)^2).

[3] = test system: A431 cells; experiment: Migration activity of EGF-stimulated cells in a transwell chamber; settings: EGF-stimulated MT1-MMP knockdown cells
From the text: No RhoG activity was detected from the cells not treated with EGF (A). […] Similar results were found in the SCC61 cells (C).

B1: Ephrin-A1: typical ligand of EphA2 (protein)
chain: DRHTVFWNSSNPKFRNEDYTIHVQLNDYVDIICPHYEDHSVADAAMEQYILYLVEHEEYQLCQPQSKDQVRWQCNRPSAKHGPEKLSEKFQRFTPFTLGKEFKEGHSYYYISKPIHQHEDRCLRLKVTVSGKITHSPQAHDNPQEKRLAADDPEVRVLHSIGHS
Q: How did the RhoG activity [1] turn out when B1 was run?
A: The RhoG activity was “significant decrease; also recorded: significantly reduced”.

Q: And the “growth of MT1-MMP knockdown cells” value [2]?
A: The value was “significantly suppressed”.

Q: What about the cell migration [3] of the same molecule?
A: Its cell migration is “significantly suppressed”.

Source: US20190064149A1, “CANCER EXAMINATION METHOD AND EXAMINATION KIT” (THE UNIVERSITY OF TOKYO, priority 2013, published 2019)
